Source: patent publication US8653023

Molecular target: protein phosphatase 2A (PP2A), endogenous, in N27 cell lysate

B1: protein kinase C delta (PKCδ), endogenous, in N27 cell lysate (immortalized rat fetal mesencephalic dopaminergic neuronal cells) (protein)
chain: MAPFLRISFNSYELGSLQAEDDASQPFCAVKMKEALTTDRGKTLVQKKPTMYPEWKSTFDAHIYEGRVIQIVLMRAAEDPMSEVTVGVSVLAERCKKNNGKAEFWLDLQPQAKVLMCVQYFLEDGDCKQSMRSEEEAMFPTMNRRGAIKQAKIHYIKNHEFIATFFGQPTFCSVCKEFVWGLNKQGYKCRQCNAAIHKKCIDKIIGRCTGTATNSRDTIFQKERFNIDMPHRFKVYNYMSPTFCDHCGTLLWGLVKQGLKCEDCGMNVHHKCREKVANLCGINQKLLAEALNQVTQKASRKPETPETVGIYQGFEKKTAVSGNDIPDNNGTYGKIWEGSNRCRLENFTFQKVLGKGSFGKVLLAELKGKERYFAIKYLKKDVVLIDDDVECTMVEKRVLALAWENPFLTHLICTFQTKDHLFFVMEFLNGGDLMFHIQDKGRFELYRATFYAAEIICGLQFLHGKGIIYRDLKLDNVMLDKDGHIKIADFGMCKENIFGENRASTFCGTPDYIAPEILQGLKYSFSVDWWSFGVLLYEMLIGQSPFHGDDEDELFESIRVDTPHYPRWITKESKDIMEKLFERDPAKRLGVTGNIRLHPFFKTINWNLLEKRKVEPPFKPKVKSPSDYSNFDPEFLNEKPQLSFSDKNLIDSMDQTAFKGFSFVNPKYEQFLE
B1 was tested. Which “32P-kinase assay: phosphorylation of immunoprecipitated PP2A” value did it give?
The value was “PP2A immunoprecipitated from N27 cells was effectively phosphorylated by PKCδ immunoprecipitates”.
